assay: soluble on expression in E. coli; label from the status in PepcDB or PDB records

Soluble on expression in E. coli, not soluble:
MGSDKIHHHHHHMSYITTKNQYITVSNNKIAYRELSKGKSDIPLVMLVHLAATLDNWDPKLLDLLAEQHHVIVLDLPGVGASQGKVAPTIPGMAEQAVSIIKALGYEKINLLGLSMGGFIAQEIVRLDSQLVNRLILAGTGPRGGFEVDKVTGKTFRYMLKAGLERVDPKRYIFYNHDEAGRLEAEKVLGRMGQRSAAHADKDMNVPGFLTQLKAIKRWGREPQDDMTFITQPTLIVNGDKDMQVPTENSYTMHEKIKNSQLIIYPNAGHGSIFQNVEDFSKALLAFLEETNA
MGSDKIHHHHHHMSYNFEEERVIKEIREKNAKRVLLQFPEGLKYFSIDIVKKLREKLPNVNFIISGEPSWGACDIAEDEAQQVNADLIIHFGHTPYTWYYPKFPTIFINAESNLDISENALHSLENDISKYNGRKISLTATLQHVRLLSKIKSFLEDKGYDIVIGKPSNRFMFDGQVLGCDYKAAEVEADIYVIVSGGLFHALGLGLATNKPTIKLDPYLQKSEDITNDVRKILKVRYGKILQALDKRSWVIIQGVKVGQNRPNMIKYFYDKLTEKGYDVFTVTNKVLTLDILRNLDRNYIDVFLVTSCPRLPIDDLYNYEKPVLTPGEAKMIINNSLEPYIFPW
MGSDKIHHHHHHMSYQDGKYQTEAEGLHGPVKVATTITGGKISAVEVLVGAGEYQSKANDVIASEIIAAQSTDVDAVSGATVSSNAIMTAVKKALQEASGESQDKTSEELTTDLAIVAAGPAGLAAAVSAAEQGVKILVFEKEKITGGTANMGMGPLGINSKIQRANFNEITVAEALKNQMEYTHYRVNGRLVARLLQIVCLNYRLVGRHGSQVRRGFPLLQGIQRHLAHR
MGSDKIHHHHHHMTAISREVPRTPHDLSLYLTRLGLTAPDLGSAMQPVLDVLVSRTAAVGAGYFQLRDSTLTYQARAASGDLPQGPLMEALLAHGLPPELPLVQALEAADGALFFEDTRLDPQAAGFADLGVLALTAAPVHNQSGRLVGALLSHVFAPHPWSAEERQLVSTVTGLLTLLAARLDAEERERAAHESALRALGLMLEARDTETQGHTDRVTALALRLGRALGLSDTELRDLRWGAYLHDIGKIAIPDAILHCPGTLDLAAWARMQEHVNEGTRLAAQLPFLPRAALDVIACHHECWDGSGYPRGLAGEAIPRHARIFAACDVYDALVSARPYKRAWTHAEATAYLEQRSGHQFDPVIVRALLRVLEDEDSAAANA
MGSDKIHHHHHHMTAIVEPTWEERRTPEAAHEDDARSQYRKDYSRIIHSAALRRLQTKTQVLGLGDSDFYRTRLTHSLEVAQIGVGILLEIQRRFAGSNIEKYLPDERLLEAICLSHDYGHPPFGHGGERALNFAMREYGGFEGNAQTFRILSKLEKYSQNSGLNPTRRTLLGVLKYPTTYSNSMTNDFRRGTDIDKYPDAELKPPKCIYDCDLDVLDWVLKIFCSEDVTEFKKLDYKCKPLHKSLDCSLMETADDIAYTVHDLEDCIKLKLINREMWDAYIKSADYSEATRLEIEKWNQRIFSKEGNLVKQGISNMVYFFIHSVIQYEHEELSHPILKYGFKLGEEAARLRSAIQKIITNEVIKTHRVRVLESKGQRMIFSIFGELVRDPESFLPRETLDKYNKATGNLRMRVICDYVSGMTDEYATKTYQRFFTPKFGSVFDV
MGSDKIHHHHHHMTALFQQLPSVDKILKTPQGLQLITEFGHTAVVATCRELLTQARQFIKKNNQLPEYFSNFDRTFLEIHSHLQKQNQVQIKAVHNLTGTVLHTNLGRALWSEAAQQAALSAMQKNVSLEYDLDEGKRSHRDNYISELLCKLTGAEAACIVNNNAAAVLLMLATFAQGKEVIISRGELIEIGGAFRIPDIMEQAGCHLVEVGTTNRTHLKDYRNAITENTAFLMKVHSSNYQICGFTSSVSEEELTELGQEMNVPVVTDLGSGALVDLSQYGLPKEPTVQEKIAQGVDLVSFSGDKLLGGVQAGIIVGKKEWIEQLQAHPLKRVLRCDKVILAGLEATLRLYLNPEKLTEKLPTLRLLTQPLKQLKINAMRLKERLESRLNSQFELQIEASQAQIGSGSQPMERIPSVAVTIAEKTNAKLSALSARFKQLSQPIIGRMENGKIWLDLRSLADIETLLNTLDEL
MGSDKIHHHHHHMTATVRQMWRHPIKGIGAEPLTEVRLETGGPMPLDRAWAVLTGTSEDTGAWQPCRNFARGCFGPELMAITAETQGNQITLRHPKQGEITLDPATDGARLLEWLLPLYPAERPQPHTLIKAPAGGMADADFSAVAILSLTSLKALGDALGQELDPRRFRGNLWIDGTAPFEEFDWVGRELKIGTARLEVVDRITRCRATETNPETGARDANTLKALREHWGHTDFGIRARVLSDGDIALSDSLEVL
MGSDKIHHHHHHMTDARDLTLPTGYIDLLGELKNRVRAARTRALRTVNTQLIELYWSIGQDVSAQQEHQGWGSGVIKRLADDLRAEFPEMKGFSARNVQYMTTFARAWNGGAIAQQPVAQLPWGHVTVLLDKLADQEKRDWYASEAVEYGWSRNVLMNMIMNKSLERTGSAPSNFAQHLVAQDSELAQQAAKDPYSFEFLGLSGEVAERDLEQALMDRITETLREMGPGFAFVGRQVHFDVGGDDFYIDLLFFHVEQLRYYVVELKTGKFQPEYAGKLNSYIALVDDRLRRETHADTVGILICGSKNDHTVRYSLGRATSPMAVASYTYDALPADVRDELPDADRLTAALDWTED
MGSDKIHHHHHHMTDQTAARACGIDFGTSNSTVGWLRPGHDTLLQLEDGKITLPSVVFFNYEEDHSRFGRAALAEYIDGFEGRLMRSLKSLLGSSLIDSQTEVQGKALPFRHLLKLFIQELKLRAEGAAGREFEQVVLGRPVYFVDDNPQADKLAQDTLADIARQVGFKEISFQLEPIAAAFDYESNIQKEELVLIVDIGGGTSDFTLIRLSPERRSHAERRDDILATGGVHIGGTDFDRQLSLHGVMPLFGFKTRLRNNAEMPSSQYFNLATWHTINFAYTRKAWMDLQDVHRDAAEPEKLDRLFKLIQERAGHWLAMEVEAAKIALSDRDSHRLALDAIERGLHCDLSRADFETSISALLDRVGGTVGKLLADSGLKAQDVDTVFFTGGSSGVPALRDGIRALLPNARHVEGNLFGSIGSGLAIEAKKRYG
MGSDKIHHHHHHMTDVNASSESRLAALEARVTELEDLNAIRRLQWAYGYYIDYNRPEEVAGLFAKDGAVVFLSGEYVGYEGVMRLYGTWFQNLFTGGRRGPVHGLLLDHFQLQDVITIAPDGQTAKGRFRGILAGGWHDDIVKDKPEGMPQQFWESGIYENDYVKEDGVWKIKRLDYMMQWQADYETGWSKTIAHLQPAAVCFPENPIGPDRLLPETEVRQTWPHRAEVPMSFAHPVLAKAFAVGEFTKLQKKWP
MGSDKIHHHHHHMTEDEAITQLRRFVAALESGSRRNANDAAFALLAGNPPLGDRWQSIAHVMQTNGEYSAAHLAMARFAAHRADPNARFAQAAMLAQTGQLEEAWKVMGSVPFGVPSVSGHHYIRGTIAVNLGHIEDAEKHLLAAIEAEPALGQAMLSLAAARKRKAGDPIGDRILSAEPRMEGAPPLERAHFHYAAGRVHFDRREPDEAFRHFSAGAELVRGWRSYDAAADARDAAECRQGFDRDFVDKINNLVTLDTSQPIFVTGLPRSGTTLVEQILVSHSAVSGGEELGRMGVVRRDLTSLSAKGLSDYLQAGGNADDLAALYLHLGQERFGKEGRFVDKALNTSRFTGLIAALLPHAPIVWLRRDPADCAFSAYRTYFINGLDWSWNLEDIATHFALEDQLFHHWSRMFPDRILAVDYQQLVQEPQAQIRRILAHCNLEEEPQVFRPHETQRVVSTASVMQVREPINTGAVGAAGAYRLHLAPFVDRYEALSAAT
MGSDKIHHHHHHMTEKADGKARIVRLGQILRIFMEKEKVSSTWLSRQFQTTPRTIQRDLLLLKKSGFPLHEIRKGIYQLHKDLVRNLEVFDDTELALVVALKNIVGQLGRPFQTAAGNILDHLYDCVKSMPVFVKIDDAVPLDSALLNRILQAILKKRTVSFQYAAPHGSHAVNLEPYRVVYFSGFWYLIGNEPSTGILKRYALDKIENFKSSRQCFTAIPSDLDDVLRQSANIWFTEDANIEITVHIDARVSDYFKRRKMYPTQEIKEERPDGSLVVTFRVGNYEAIRDILKSWIPHFVILEPEDFRVSMLNDIKGWVEKQEQQSCLDNISF
MGSDKIHHHHHHMTEQVTRRDVLGTGASVLGSLAIGSTTASGALQTDGTTVTFLHDTHVHGRFANASAGELSVARYFGLMNEITEDADTTLRVGNGDDLASSVLSAVFDGRHVVSTFNAGGLDFDTFGNHDFDMGPEVLRERVSDSLFTWVSANVREDGSVFAAEQGAQQYVLTDVGDVTLGVTGLITPEAPEVTSIGENTDVLAPASALQNVTERMRADGADAVIVLSHLASETARTVAEEVDGVDAIIGDHAASLLEEPEVINDTVLSFVGDEYEYLGELALGIDGSGVTDHEFVLHNVGESSAGTDPFVSLVQDHYETQLERQLDVVIGETTQPLDTRQSVVRARESNMGNFVADTIRTDVEADTALMNGGGIRTDRLYFEDASEDDPVAITRRVVVDILPFPNNVVELEVTGETLLAALENGVSRVEAGAGRFPQVSGITYTYDPTAESGDRIVDATAGGDPIDPDATYTLATNDFVSGGGDGYDMLSDATVLVSSNEGALLSDLIINTIEEQGTISPTTEGRITRQSEES
MGSDKIHHHHHHMTETTSSPQHYLGWDIGGANLKVALVRPDGIAVKVIQVPCPLWQGMDRLDAAIDLALAELGGPGGAKHSVTMTGELADIFPDRASGVWEIALRTHAMLGSELCFFAGASGFVPLAQVQQHANAIASANWLASAAFVATKLQQGLFIDIGSTTADFVLLHDGRPVNRGQTDAERMQHEELVYTGVARTSLMALASRIPFAGQWQNVAAEHFATTADVYRLTGELDPAEDMAATADGAGKSMDETCRRLARMVGRDADDADKTAWVHLAQAFRQQQLAILRDAVLCNLSRNVVRPGAPFIGAGAGVFLVRELAQQLGHEFLAASSLLKAESDQARNWAGVCLPAYAVANLGITANSQERAC
MGSDKIHHHHHHMTFRALPSVDRLIRAVRSDGADMPHELVREAARAVLNEARTSISAGHPPPDLSTLVAAVQARLRADVTPSLRPLINATGVIIQTNLGRAPLSAAACAAMQEVGSGYSNLEYDLAQGERGSRHVHLESLLVQLTGAEAALVVNNNAAAVYLVLIAMAAGREVIVSRGQAVEIGGGFRIPDVLRASGALLIEVGTTNRTYARDYTAAITERTALILRVHTSNFRLIGFVHEPPLAELTAVAHTHGIPLLDDLGSGTLIDTRQFDLPPEPTVQESVAAGADLVTFSGDKLLGGPQAGIIVGRRELIARLRRHPLARALRVDKCTIAGLTATLHSYLRGTALREIPVWQLISTPLSALQARAERIAGALRAAGIPAQMVDCASAIGGGSLPGATQPSAGVALPPVGCGATVLAHRLRMANPPVITRIVDDQVLCDLRSVFPHEDTTLINVVREVWQ
MGSDKIHHHHHHMTGHYSKTEHQYILLTSESASFDHYSVYRDPQLPQIFSHNFVQLHDTFPLERLLNFLPSVPKLLDANYLHLKASPQHVFPLGLKQSLVKSGFVVEDELLYDMKLSDWKGQMGHPLTAWGTAKSLSDGSSIMKIYDSIYIGEAIAEQKLKRKYPFYEADIIILVVCYSDQAQKVPIGCGELFIDHQEKTAKIEEVAILDQFQRKGYGSILVKEMLSIAKSLGMEAAYLVAASTDGATQFYEKLTFKKYERVHTVFHYFLT
MGSDKIHHHHHHMTGNQMFCRENELDESFKQLASYINIPVGVLLPFKSQCFVRHYNKGQIVYYSSDETTHIYLLLKGNIMRENFNLNGDVYRYLNREKVLFPLNNLFQDKVPNEMCTALTDCEMIGIPRDLIEYLCKNHEEIFVKLFSLLSETQCQHIEYNMALTSKLAKERVTKILRYLCQTVGYDHDEFYEIKHFMTIQLLSDMAGISRETTSHIINELREEKILFKNSKNWLVSKDL

From the DeepSol protein solubility set
